The text below walks through data of patent publication US20250161474A1 (SICHUAN KELUN BIOTECH BIOPHARMACEUTICAL, published 2025).

Changes are numbered by the printed parent chain.

As usually defined, the EC50 is the concentration at which the effect is half-maximal. Read a low EC50 as an effect from little substance.

Sequences and labels used below:
B1: ADC 49B-A-05 (bispecific antibody, human IgG1, kappa, L234A L235A)
light: DIQMTQSPSSLSASVGDRVTITCKSSQSLLYTSSQKNYLAWYQQKPGKAPKLLIYWASTRESGVPSRFSGSGSGTDFTLTISSLQPEDFATYYCQQYYAYPWTFGQGTKVEIKRTVAAPSVFIFPPSDEQLKSGTASVVCLLNNFYPREAKVQWKVDNALQSGNSQESVTEQDSKDSTYSLSSTLTLSKADYEKHKVYACEVTHQGLSSPVTKSFNRGEC
heavy: not shown
chain: AIQLTQSPSSLSASVGDRVTITCRASQDISSALVWYQQKPGKAPKLLIYDASSLESGVPSRFSGSESGTDFTLTISSLQPEDFATYYCQQFNSYPLTFGGGTKVEIKGGGGSGGGGSGGGGSQVQLVESGGGVVQPGRSLRLSCAASGFTFSTYGMHWVRQAPGKGLEWVAVIWDDGSYKYYGDSVKGRFTISRDNSKNTLYLQMNSLRAEDTAVYYCARDGITMVRGVMKDYFDYWGQGTLVTVSSGGGGDKTHTCPPCPAPEAAGGPSVFLFPPKPKDTLMISRTPEVTCVVVDVSHEDPEVKFNWYVDGVEVHNAKTKPREEQYNSTYRVVSVLTVLHQDWLNGKEYKCKVSNKALAAPIEKTISKAKGQPREPQVCTLPPSRDELTKNQVSLSCAVKGFYPSDIAVEWESNGQPENNYKTTPPVLDSDGSFFLVSKLTVDKSRWQQGNVFSCSVMHEALHNHYTQKSLSLSPGK
modifications: linker-payload A-05 on reduced Cys sulfhydryls (sites not given); DAR of the whole ADC approximately 6
B2: ADC 49B-A-14 (bispecific antibody, human IgG1, kappa, L234A L235A)
light: B1 light
heavy: not shown
chain: B1 chain
modifications: linker-payload A-14 on reduced Cys sulfhydryls (sites not given); DAR of the whole ADC approximately 6
B3: ADC 55B-A-14 (bispecific antibody, human IgG1, kappa, L234A L235A)
light: B1 light
heavy: not shown
chain 1: AIQLTQSPSSLSASVGDRVTITCRASQDISSALVWYQQKPGKAPKLLIYDASSLESGVPSRFSGSESGTDFTLTISSLQPEDFATYYCQQFNSYPLTFGGGTKVEIKSSASTKGPSVFPLAPSSKSTSGGTAALGCLVKDYFPEPVTVSWNSGALTSGVHTFPAVLQSSGLYSLSSVVTVPSSSLGTQTYICNVNHKPSNTKVDKKVEPKSC
chain 2: QVQLVESGGGVVQPGRSLRLSCAASGFTFSTYGMHWVRQAPGKGLEWVAVIWDDGSYKYYGDSVKGRFTISRDNSKNTLYLQMNSLRAEDTAVYYCARDGITMVRGVMKDYFDYWGQGTLVTVSSASVAAPSVFIFPPSDEQLKSGTASVVCLLNNFYPREAKVQWKVDNALQSGNSQESVTEQDSKDSTYSLSSTLTLSKADYEKHKVYACEVTHQGLSSPVTKSFNRGECDKTHTCPPCPAPEAAGGPSVFLFPPKPKDTLMISRTPEVTCVVVDVSHEDPEVKFNWYVDGVEVHNAKTKPREEQYNSTYRVVSVLTVLHQDWLNGKEYKCKVSNKALAAPIEKTISKAKGQPREPQVCTLPPSRDELTKNQVSLSCAVKGFYPSDIAVEWESNGQPENNYKTTPPVLDSDGSFFLVSKLTVDKSRWQQGNVFSCSVMHEALHNHYTQKSLSLSPGK
modifications: linker-payload A-14 on reduced Cys sulfhydryls (sites not given); DAR of the whole ADC approximately 8
B4: ADC 07B-A-05 (bispecific antibody, human IgG1, kappa)
light: B1 light
heavy: not shown
chain: B1 chain with A265L, A266L, A360P, D387E, L389M
modifications: linker-payload A-05 on reduced Cys sulfhydryls (sites not given); DAR of the whole ADC approximately 6
B5: ADC 56B-A-14 (bispecific antibody)
chain 1: not shown
chain 2: DIQMTQSPSSLSASVGDRVTITCKSSQSLLYTSSQKNYLAWYQQKPGKAPKLLIYWASTRESGVPSRFSGSGSGTDFTLTISSLQPEDFATYYCQQYYAYPWTFGQGTKVEIKGGGGSGGGGSGGGGSEVQLVESGGGLVQPGGSLRLSCAASGYTFTSYWLHWVRQAPGKGLEWVGMIDPSNSDTRFNPNFKDRFTISADTSKNTAYLQMNSLRAEDTAVYYCATYRSYVTPLDYWGQGTLVTVSSGGGGDKTHTCPPCPAPEAAGGPSVFLFPPKPKDTLMISRTPEVTCVVVDVSHEDPEVKFNWYVDGVEVHNAKTKPREEQYNSTYRVVSVLTVLHQDWLNGKEYKCKVSNKALAAPIEKTISKAKGQPREPQVCTLPPSRDELTKNQVSLSCAVKGFYPSDIAVEWESNGQPENNYKTTPPVLDSDGSFFLVSKLTVDKSRWQQGNVFSCSVMHEALHNHYTQKSLSLSPGK
modifications: linker-payload A-14 on reduced Cys sulfhydryls (sites not given); DAR of the whole ADC approximately 4
B6: ADC 38B-A-14 (bispecific antibody, human IgG1, kappa, L234A L235A)
light: not shown
heavy: not shown
chain: B5 chain 2
modifications: linker-payload A-14 on reduced Cys sulfhydryls (sites not given); DAR of the whole ADC approximately 6
B7: BsAb 49B (bispecific antibody, human IgG1, kappa, L234A L235A)
light: B1 light
heavy: not shown
chain: B1 chain
notes: Fab-scFv-Fc (KIH) format; anti-c-MET Fab, anti-EGFR scFv; also called BsB 49B; bispecific antibody 49B
B8: BsAb 07B (bispecific antibody, human IgG1, kappa)
light: B1 light
heavy: not shown
chain: B1 chain with A265L, A266L, A360P, D387E, L389M
notes: Fab-scFv-Fc (KIH) format; anti-c-MET Fab, anti-EGFR scFv; expressed in CHO-K1; also called bispecific antibody 07B
B9: BsAb 10B (bispecific antibody, human IgG1, kappa)
light: not shown
heavy: not shown
chain: B5 chain 2 with A265L, A266L, A360P, D387E, L389M
notes: Fab-scFv-Fc (KIH) format; anti-EGFR Fab, anti-c-MET scFv; also called bispecific antibody 10B
B10: BsAb 38B (bispecific antibody, human IgG1, kappa, L234A L235A)
light: not shown
heavy: not shown
chain: B5 chain 2
notes: Fab-scFv-Fc (KIH) format; anti-EGFR Fab, anti-c-MET scFv; also called bispecific antibody 38B

In the first experiment the target is T1, human c-MET (human, UniProt P08581 25-1390). The experiment is described as follows: cell-based or functional assay.
T1 sequence (P08581 25-1390): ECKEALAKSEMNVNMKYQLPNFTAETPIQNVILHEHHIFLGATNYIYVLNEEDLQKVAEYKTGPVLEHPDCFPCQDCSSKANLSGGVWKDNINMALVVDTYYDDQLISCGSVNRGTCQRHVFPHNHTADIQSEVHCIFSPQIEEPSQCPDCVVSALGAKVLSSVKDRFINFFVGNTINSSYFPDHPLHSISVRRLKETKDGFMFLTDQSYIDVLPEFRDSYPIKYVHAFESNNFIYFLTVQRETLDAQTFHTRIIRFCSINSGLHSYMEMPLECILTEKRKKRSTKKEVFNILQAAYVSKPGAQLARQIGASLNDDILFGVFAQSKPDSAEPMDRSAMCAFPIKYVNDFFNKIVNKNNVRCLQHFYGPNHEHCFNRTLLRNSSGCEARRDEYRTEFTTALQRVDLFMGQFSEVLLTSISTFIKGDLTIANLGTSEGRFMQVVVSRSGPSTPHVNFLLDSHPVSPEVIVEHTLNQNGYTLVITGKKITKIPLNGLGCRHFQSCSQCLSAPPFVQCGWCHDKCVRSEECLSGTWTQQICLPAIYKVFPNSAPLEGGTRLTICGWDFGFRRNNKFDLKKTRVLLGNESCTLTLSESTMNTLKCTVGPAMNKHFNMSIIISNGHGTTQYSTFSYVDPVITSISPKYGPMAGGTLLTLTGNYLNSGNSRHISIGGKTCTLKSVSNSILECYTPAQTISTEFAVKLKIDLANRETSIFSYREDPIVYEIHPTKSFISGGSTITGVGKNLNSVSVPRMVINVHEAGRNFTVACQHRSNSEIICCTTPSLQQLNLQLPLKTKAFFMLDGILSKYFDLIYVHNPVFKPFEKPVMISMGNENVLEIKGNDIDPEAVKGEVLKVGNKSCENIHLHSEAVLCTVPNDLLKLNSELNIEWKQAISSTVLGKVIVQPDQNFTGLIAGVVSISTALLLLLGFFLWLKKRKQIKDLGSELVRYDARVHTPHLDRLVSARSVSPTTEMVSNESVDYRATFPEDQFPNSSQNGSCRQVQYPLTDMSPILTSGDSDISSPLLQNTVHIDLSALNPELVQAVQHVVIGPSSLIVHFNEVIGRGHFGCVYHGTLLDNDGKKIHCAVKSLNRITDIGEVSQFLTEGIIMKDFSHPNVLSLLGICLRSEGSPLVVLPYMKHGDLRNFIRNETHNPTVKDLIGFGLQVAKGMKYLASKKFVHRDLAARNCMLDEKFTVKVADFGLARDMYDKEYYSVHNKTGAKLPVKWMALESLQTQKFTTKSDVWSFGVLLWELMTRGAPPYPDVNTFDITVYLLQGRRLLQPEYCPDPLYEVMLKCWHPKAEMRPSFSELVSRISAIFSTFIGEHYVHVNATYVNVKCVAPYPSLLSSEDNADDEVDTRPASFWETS
For B1, the “IC50, in vitro cell killing (CCK8) on EBC-1 cells” value (from here on “IC50 … on EBC-1 cells”) worked out at 1.08 nM and the “IC50, in vitro cell killing (CCK8) on MKN45 cells” value (“IC50 … on MKN45 cells” below) was 0.68 nM.
The matching figures for B2: 2.93 nM and 0.57 nM.
Take B3: the “IC50 … on EBC-1 cells” value is 0.42 nM and the “IC50 … on MKN45 cells” value was 0.4 nM.
In the case of B4, the “IC50 … on EBC-1 cells” value stood at 0.48 nM.
In the case of B5, the “IC50 … on EBC-1 cells” value came to 2.95 nM and the “IC50 … on MKN45 cells” value was found to be 1.17 nM.
B6: the “IC50 … on EBC-1 cells” value is 1.03 nM and the “IC50 … on MKN45 cells” value is 0.3 nM.

Another experiment concerns the target T1, human c-MET. Nature of the experiment: flow cytometry on EBC-1 cells (highly express c-MET). The source says: (§1) A flow cytometer (Beckman, model Cytoflex) was used to detect the interaction between anti-human EGFR/c-MET bispecific antibodies and their conjugates and human gastric cancer cells MKN45 (Nanjing Cobioer Biosciences) and human gastric cancer cells overexpressing human EGFR MKN45-EGFR (Kelun-Biotech), human lung squamous cell carcinoma EBC-1 (Nanjing Cobioer Biosciences), human lung squamous cell carcinoma EBC-1-EGFR overexpressing human EGFR (Kelun-Biotech), human non-small cell lung cancer cell HCC827 (ATCC™), and human epidermal squamous cell carcinoma cell A431 (Nanjing Cobioer Biosciences). The protocol was as follows.
(§2) The adherent cells were digested with Trypsin-EDTA solution (0.25%) (Shanghai BasalMedia) and the cell density adjusted to 4.0×10⁶ per mL. The cells were washed twice with 1% BSA and resuspended in 1% BSA solution. Then 50 μL cell suspension was added to each well of a 96-well plate (the number of cells was 2×10⁵ per well). The antibody and its conjugate were diluted with 1% BSA (final concentration 10 µg/mL, 3-fold gradient dilution, a total of 11 concentration points). Then 50 μL of the diluted antibody and ADC were added to the wells of the 96-well plate and the plate was incubated at 4° C. for 60 minutes. The wells of the 96-well plate were then washed twice with 1% BSA, 50 μL of diluted secondary antibody was added to each well, and the 96-well plate was incubated at 4° C. for 30 minutes. Then the cells were washed twice with 1% BSA, and the cells were resuspended in 200 μL of 1% BSA and subjected to flow cytometry detection.
Molecule B1 yielded an EC50 of 0.95 nM.
The same measure, in the same setting: in the case of B2 it was 1.51 nM; in that of B7, 1.32 nM; in that of B4, 1.47 nM.
Molecule B8 came in with an EC50 of 1.46 nM.
On the same count and under the same terms, in the case of B9 it was 1.51 nM.
The same measure, in the same setting: then B6, with 1.29 nM.

The target in another experiment is T1, human c-MET. Nature of the experiment: flow cytometry on MKN45 cells (highly express c-MET).
Source text: as §1, §2
(In general: A flow cytometer gives signals particle by particle.)
Turning to B1, the response was half-maximal at 1.58 nM (EC50).
B2 showed an EC50 of 1.06 nM.
As to B7, the EC50 was 0.34 nM.
Same read-out and setting: in the case of B9 it was 1.1 nM; in that of B10, 1.16 nM.
